Columns and labels:
HeLa Kyoto [1] = assay: solubility in G1/S (NP-40 vs SDS abundance) (log2 ratio); higher = more soluble; details: cell cycle stage: G1/S
HeLa Kyoto [2] = assay: melting temperature (median over replicates), in situ; higher = more thermally stable
HeLa Kyoto [3] = assay: solubility change mitosis vs G1/S (difference of NP-40 vs SDS log2 ratios) (log2 ratio difference); higher = more soluble in mitosis
HeLa Kyoto [4] = assay: thermal stability score vs G1/S (z-score of summed log2 fold changes over temperatures); higher = more thermally stable than in G1/S
[5] = cell cycle stage: early G1 (4.5 h after nocodazole release)
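Throughout, for melting temperature (median over replicates), in situ: HeLa Kyoto cells synchronized by double thymidine or nocodazole block, proteins quantified by TMT10plex mass spectrometry, three independent biological replicates.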
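Throughout, for solubility change mitosis vs G1/S (difference of NP-40 vs SDS log2 ratios): synchronized HeLa Kyoto cells (double thymidine block for G1/S, nocodazole release for mitosis), protein amounts in NP-40 versus SDS lysates quantified by mass spectrometry, three biological replicates.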
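Throughout, for solubility in G1/S (NP-40 vs SDS abundance): HeLa Kyoto cells arrested at G1/S by double thymidine block, proteins quantified by TMT10plex mass spectrometry in mild NP-40 versus SDS extracts, three biological replicates.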
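Throughout, for thermal stability score vs G1/S (z-score of summed log2 fold changes over temperatures): synchronized HeLa Kyoto cells, proteins quantified by TMT10plex mass spectrometry, three biological replicates, mitosis taken 0.5 h after nocodazole release, G1/S directly after double thymidine block.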

Sequence	solubility in G1/S (log2) (HeLa Kyoto [1])	melting temperature (HeLa Kyoto [2]; cell cycle stage: G1/S) [°C]	solubility change mitosis (log2) (HeLa Kyoto [3])	thermal stability score (HeLa Kyoto [4]; [5])	thermal stability score (HeLa Kyoto [4]; cell cycle stage: mitosis)	melting temperature (HeLa Kyoto [2]; cell cycle stage: mitosis) [°C]
MSSGKSARYNRFSGGPSNLPTPDVTTGTRMETTFGPAFSAVTTITKADGTSTYKQHCRTPSSSSTLAYSPRDEEDSMPPISTPRRSDSAISVRSLHSESSMSLRSTFSLPEEEEEPEPLVFAEQPSVKLCCQLCCSVFKDPVITTCGHTFCRRCALKSEKCPVDNVKLTVVVNNIAVAEQIGELFIHCRHGCRVAGSGKPPIFEVDPRGCPFTIKLSARKDHEGSCDYRPVRCPNNPSCPPLLRMNLEAHLKECEHIKCPHSKYGCTFIGNQDTYETHLETCRFEGLKEFLQQTDDRFHEMHVALAQKDQEIAFLRSMLGKLSEKIDQLEKSLELKFDVLDENQSKLSEDLMEFRRDASMLNDELSHINARLNMGILGSYDPQQIFKCKGTFVGHQGPVWCLCVYSMGDLLFSGSSDKTIKVWDTCTTYKCQKTLEGHDGIVLALCIQGCKLYSGSADCTIIVWDIQNLQKVNTIRAHDNPVCTLVSSHNVLFSGSLKAIKVWDIVGTELKLKKELTGLNHWVRALVAAQSYLYSGSYQTIKIWDIRTLDCIHVLQTSGGSVYSIAVTNHHIVCGTYENLIHVWDIESKEQVRTLTGHVGTVYALAVISTPDQTKVFSASYDRSLRVWSMDNMICTQTLLRHQGSVTALAVSRGRLFSGAVDSTVKVWTC [TRAF7]	-0.171	50.5	-0.0251	-0.465	0.328	
MVWKRLGALVMFPLQMIYLVVKAAVGLVLPAKLRDLSRENVLITGGGRGIGRQLAREFAERGARKIVLWGRTEKCLKETTEEIRQMGTECHYFICDVGNREEVYQTAKAVREKVGDITILVNNAAVVHGKSLMDSDDDALLKSQHINTLGQFWTTKAFLPRMLELQNGHIVCLNSVLALSAIPGAIDYCTSKASAFAFMESLTLGLLDCPGVSATTVLPFHTSTEMFQGMRVRFPNLFPPLKPETVARRTVEAVQLNQALLLLPWTMHALVILKSILPQAALEEIHKFSGTYTCMNTFKGRT [DHRS3]	-0.137	54	-0.135	0.157	-0.582	53.1
MNRFRVSKFRHTEARPPRRESWISDIRAGTAPSCRNHIKSSCSLIAFNSDRPGVLGIVPLQGQGEDKRRVAHLGCHSDLVTDLDFSPFDDFLLATGSADRTVKLWRLPGPGQALPSAPGVVLGPEDLPVEVLQFHPTSDGILVSAAGTTVKVWDAAKQQPLTELAAHGDLVQSAVWSRDGALVGTACKDKQLRIFDPRTKPRASQSTQAHENSRDSRLAWMGTWEHLVSTGFNQMREREVKLWDTRFFSSALASLTLDTSLGCLVPLLDPDSGLLVLAGKGERQLYCYEVVPQQPALSPVTQCVLESVLRGAALVPRQALAVMSCEVLRVLQLSDTAIVPIGYHVPRKAVEFHEDLFPDTAGCVPATDPHSWWAGDNQQVQKVSLNPACRPHPSFTSCLVPPAEPLPDTAQPAVMETPVGDADASEGFSSPPSSLTSPSTPSSLGPSLSSTSGIGTSPSLRSLQSLLGPSSKFRHAQGTVLHRDSHITNLKGLNLTTPGESDGFCANKLRVAVPLLSSGGQVAVLELRKPGRLPDTALPTLQNGAAVTDLAWDPFDPHRLAVAGEDARIRLWRVPAEGLEEVLTTPETVLTGHTEKICSLRFHPLAANVLASSSYDLTVRIWDLQAGADRLKLQGHQDQIFSLAWSPDGQQLATVCKDGRVRVYRPRSGPEPLQEGPGPKGGRGARIVWVCDGRCLLVSGFDSQSERQLLLYEAEALAGGPLAVLGLDVAPSTLLPSYDPDTGLVLLTGKGDTRVFLYELLPESPFFLECNSFTSPDPHKGLVLLPKTECDVREVELMRCLRLRQSSLEPVAFRLPRVRKEFFQDDVFPDTAVIWEPVLSAEAWLQGANGQPWLLSLQPPDMSPVSQAPREAPARRAPSSAQYLEEKSDQQKKEELLNAMVAKLGNREDPLPQDSFEGVDEDEWD [CORO7]	-0.00965	51	0.159	0.406	0.778	51.9
MPTESASCSTARQTKQKRKSHSLSIRRTNSSEQERTGLPRDMLEGQDSKLPSSVRSTLLELFGQIEREFENLYIENLELRREIDTLNERLAAEGQAIDGAELSKGQLKTKASHSTSQLSQKLKTTYKASTSKIVSSFKTTTSRAACQLVKEYIGHRDGIWDVSVAKTQPVVLGTASADHTALLWSIETGKCLVKYAGHVGSVNSIKFHPSEQLALTASGDQTAHIWRYAVQLPTPQPVADTSISGEDEVECSDKDEPDLDGDVSSDCPTIRVPLTSLKSHQGVVIASDWLVGGKQAVTASWDRTANLYDVETSELVHSLTGHDQELTHCCTHPTQRLVVTSSRDTTFRLWDFRDPSIHSVNVFQGHTDTVTSAVFTVGDNVVSGSDDRTVKVWDLKNMRSPIATIRTDSAINRINVCVGQKIIALPHDNRQVRLFDMSGVRLARLPRSSRQGHRRMVCCSAWSEDHPVCNLFTCGFDRQAIGWNINIPALLQEK [WDR37]	0.0178	53.3	-0.117	-0.8	-0.627	
MDTESTYSGYSYYSSHSKKSHRQGERTRERHKSPRNKDGRGSEKSVTIQPPTGEPLLGNDSTRTEEVQDDNWGETTTAITGTSEHSISQEDIARISKDMEDSVGLDCKRYLGLTVASFLGLLVFLTPIAFILLPPILWRDELEPCGTICEGLFISMAFKLLILLIGTWALFFRKRRADMPRVFVFRALLLVLIFLFVVSYWLFYGVRILDSRDRNYQGIVQYAVSLVDALLFIHYLAIVLLELRQLQPMFTLQVVRSTDGESRFYSLGHLSIQRAALVVLENYYKDFTIYNPNLLTASKFRAAKHMAGLKVYNVDGPSNNATGQSRAMIAAAARRRDSSHNELYYEEAEHERRVKKRKARLVVAVEEAFIHIQRLQAEEQQKAPGEVMDPREAAQAIFPSMARALQKYLRITRQQNYHSMESILQHLAFCITNGMTPKAFLERYLSAGPTLQYDKDRWLSTQWRLVSDEAVTNGLRDGIVFVLKCLDFSLVVNVKKIPFIILSEEFIDPKSHKFVLRLQSETSV [VANGL1]	-0.322	56	0.00763	-1.85	-3.36	54.7
MSEHVEPAAPGPGPNGGGGGPAPARGPRTPNLNPNPLINVRDRLFHALFFKMAVTYSRLFPPAFRRLFEFFVLLKALFVLFVLAYIHIVFSRSPINCLEHVRDKWPREGILRVEVRHNSSRAPVFLQFCDSGGRGSFPGLAVEPGSNLDMEDEEEEELTMEMFGNSSIKFELDIEPKVFKPPSSTEALNDSQEFPFPETPTKVWPQDEYIVEYSLEYGFLRLSQATRQRLSIPVMVVTLDPTRDQCFGDRFSRLLLDEFLGYDDILMSSVKGLAENEENKGFLRNVVSGEHYRFVSMWMARTSYLAAFAIMVIFTLSVSMLLRYSHHQIFVFIVDLLQMLEMNMAIAFPAAPLLTVILALVGMEAIMSEFFNDTTTAFYIILIVWLADQYDAICCHTSTSKRHWLRFFYLYHFAFYAYHYRFNGQYSSLALVTSWLFIQHSMIYFFHHYELPAILQQVRIQEMLLQAPPLGPGTPTALPDDMNNNSGAPATAPDSAGQPPALGPVSPGASGSPGPVAAAPSSLVAAAASVAAAAGGDLGWMAETAAIITDASFLSGLSASLLERRPASPLGPAGGLPHAPQDSVPPSDSAASDTTPLGAAVGGPSPASMAPTEAPSEVGS [TMEM259]	-0.252	54.7	-0.025	0.29	0.308	54.2
MAVEDSTLQVVVRVRPPTPRELDSQRRPVVQVVDERVLVFNPEEPDGGFPGLKWGGTHDGPKKKGKDLTFVFDRVFGEAATQQDVFQHTTHSVLDSFLQGYNCSVFAYGATGAGKTHTMLGREGDPGIMYLTTVELYRRLEARQQEKHFEVLISYQEVYNEQIHDLLEPKGPLAIREDPDKGVVVQGLSFHQPASAEQLLEILTRGNRNRTQHPTDANATSSRSHAIFQIFVKQQDRVPGLTQAVQVAKMSLIDLAGSERASSTHAKGERLREGANINRSLLALINVLNALADAKGRKTHVPYRDSKLTRLLKDSLGGNCRTVMIAAISPSSLTYEDTYNTLKYADRAKEIRLSLKSNVTSLDCHISQYATICQQLQAEVAALRKKLQVYEGGGQPPPQDLPGSPKSGPPPEHQPCTPELPAGPRALQEESLGMEAQVERAMEGNSSDQEQSPEDEDEGPAEEVPTQMPEQNPTHALPESPRLTLQPKPVVGHFSARELDGDRSKQLALKVLCVAQRQYSLLQAANLLTPDMITEFETLQQLVQEEKIEPGAEALRTSGLARGAPLAQELCSESIPVPSPLCPEPPGYTGPVTRTMARRLSGPLHTLGIPPGPNCTPAQGSRWPMEKKRRRPSALEADSPMAPKRGTKRQRQSFLPCLRRGSLPDTQPSQGPSTPKGERASSPCHSPRVCPATVIKSRVPLGPSAMQNCSTPLALPTRDLNATFDLSEEPPSKPSFHECIGWDKIPQELSRLDQPFIPRAPVPLFTMKGPKPTSSLPGTSACKKKRVASSSVSHGRSRIARLPSSTLKRPAGPLVLPELPLSPLCPSNRRNGKDLIRVGRALSAGNGVTKVS [KIF18B]	-0.336		0.37	1.28	1.04	49.3
MDPAARVVRALWPGGCALAWRLGGRPQPLLPTQSRAGFAGAAGGPSPVAAARKGSPRLLGAAALALGGALGLYHTARWHLRAQDLHAERSAAQLSLSSRLQLTLYQYKTCPFCSKVRAFLDFHALPYQVVEVNPVRRAEIKFSSYRKVPILVAQEGESSQQLNDSSVIISALKTYLVSGQPLEEIITYYPAMKAVNEQGKEVTEFGNKYWLMLNEKEAQQVYGGKEARTEEMKWRQWADDWLVHLISPNVYRTPTEALASFDYIVREGKFGAVEGAVAKYMGAAAMYLISKRLKSRHRLQDNVREDLYEAADKWVAAVGKDRPFMGGQKPNLADLAVYGVLRVMEGLDAFDDLMQHTHIQPWYLRVERAITEASPAH [PTGES2]	0.0509	54.6	-0.0374	1.5	0.796	54.9
MFDTTPHSGRSTPSSSPSLRKRLQLLPPSRPPPEPEPGTMVEKGSDSSSEKGGVPGTPSTQSLGSRNFIRNSKKMQSWYSMLSPTYKQRNEDFRKLFSKLPEAERLIVDYSCALQREILLQGRLYLSENWICFYSNIFRWETTISIQLKEVTCLKKEKTAKLIPNAIQICTESEKHFFTSFGARDRCFLLIFRLWQNALLEKTLSPRELWHLVHQCYGSELGLTSEDEDYVSPLQLNGLGTPKEVGDVIALSDITSSGAADRSQEPSPVGSRRGHVTPNLSRASSDADHGAEEDKEEQVDSQPDASSSQTVTPVAEPPSTEPTQPDGPTTLGPLDLLPSEELLTDTSNSSSSTGEEADLAALLPDLSGRLLINSVFHVGAERLQQMLFSDSPFLQGFLQQCKFTDVTLSPWSGDSKCHQRRVLTYTIPISNPLGPKSASVVETQTLFRRGPQAGGCVVDSEVLTQGIPYQDYFYTAHRYCILGLARNKARLRVSSEIRYRKQPWSLVKSLIEKNSWSGIEDYFHHLERELAKAEKLSLEEGGKDARGLLSGLRRRKRPLSWRAHGDGPQHPDPDPCARAGIHTSGSLSSRFSEPSVDQGPGAGIPSALVLISIVICVSLIILIALNVLLFYRLWSLERTAHTFESWHSLALAKGKFPQTATEWAEILALQKQFHSVEVHKWRQILRASVELLDEMKFSLEKLHQGITVSDPPFDTQPRPDDSFS [GRAMD1A]	-0.0369	50.4	-0.0358	0.21	0.368	51.8
